Laboratory results published in publication PMC3903306.

Key:
[1] = target: IpaB^28.226 (Shigella flexneri); assay: cross-linking
IpgC (Shigella flexneri) = IpgC (Shigella flexneri) (UniProt P0A2U4); assay: ITC
[2] = target: IpaB^1.226 (Shigella flexneri); assay: cross-linking
[3] = target: FM-IpaB^C1.226 (Shigella flexneri); assay: fluorescence polarisation
[4] = target: FM-IpaB^N28.226 (Shigella flexneri); assay: fluorescence polarisation
[5] = target: FM-IpaB^C28.226 (Shigella flexneri); assay: fluorescence polarisation
[6] = target: FM-IpaB^N1.226 (Shigella flexneri); assay: fluorescence polarisation

Row | Substance | stoichiometry N [1] | Kd (IpgC (Shigella flexneri)) | dH (IpgC (Shigella flexneri)) | stoichiometry N (IpgC (Shigella flexneri)) | stoichiometry N [2] | Kd [3] | Kd [4] | Kd [5] | Kd [6]
1 | IpaB^28.226 (domain or fragment) | 2 | 2.96 µM | 14.9 kJ/mol | 0.88 |  |  |  |  | 
2 | IpaB^1.226 (domain or fragment) |  | 0.208 µM | 36.3 kJ/mol | 1.03 | 2 |  |  |  | 
3 | IpgC (from UniProt P0A2U4 1-155) (natural protein) |  |  |  |  |  | 0.0595 µM | 0.411 µM | 0.501 µM | 0.199 µM
